Tested on: ADAR1 KO FLAG-ZBP1 MEFs
Experiment: Cytokine-induced ZBP1-dependent cell death in ADAR1-deficient MEFs
Assay type: cell-based, murine
Details: cytokines 100 ng/mL, viability at 48 hours
Description: Immortalized Zbp1^−/− stably reconstituted with FLAG-ZBP1 MEFs were transiently transfected with TrueGuide Synthetic sgRNA against mouse Adar1 (ThermoFisher Scientific, CRISPR162007 SGM) and TrueCut Cas9 Protein (ThermoFisher Scientific, A36499) by Lipofectamine CRISPRMAX Cas9 Transfection Reagent (ThermoFisher Scientific, CMAX00008). After two days, cells were harvest and examined ADAR1 protein level by western blot.

TNFα
ZBP1-dependent cell death in ADAR1-deficient MEFs: not

B1: IFNγ: inflammatory cytokine of the tested panel (protein, UniProt P01579 24-161, looked up)
Interferon gamma: QDPYVKEAENLKKYFNAGHSDVADNGTLFLGILKNWKEESDRKIMQSQIVSFYFKLFKNFKDDQSIQKSVETIKEDMNVKFFNSNKKKRDDFEKLTNYSVTDLNVQRKAIHELIQVMAELSPAAKTGKRKRSQMLFRG
ZBP1-dependent cell death in ADAR1-deficient MEFs: induced ZBP1-dependent cell death

B2: IL-1α: inflammatory cytokine of the tested panel (protein, UniProt P01583 113-271, looked up)
Interleukin-1 alpha: SAPFSFLSNVKYNFMRIIKYEFILNDALNQSIIRANDQYLTAAALHNLDEAVKFDMGAYKSSKDDAKITVILRISKTQLYVTAQDEDQPVLLKEMPEIPKTITGSETNLLFFWETHGTKNYFTSVAHPNLFIATKQDYWVCLAGGPPSITDFQILENQA
ZBP1-dependent cell death in ADAR1-deficient MEFs: not

B3: TRAIL: inflammatory cytokine of the tested panel (protein, UniProt P50591 1-281, looked up)
Tumor necrosis factor ligand …: MAMMEVQGGPSLGQTCVLIVIFTVLLQSLCVAVTYVYFTNELKQMQDKYSKSGIACFLKEDDSYWDPNDEESMNSPCWQVKWQLRQLVRKMILRTSEETISTVQEKQQNISPLVRERGPQRVAAHITGTRGRSNTLSSPNSKNEKALGRKINSWESSRSGHSFLSNLHLRNGELVIHEKGFYYIYSQTYFRFQEEIKENTKNDKQMVQYIYKYTSYPDPILLMKSARNSCWSKDAEYGLYSIYQGGIFELKENDRIFVSVTNEHLIDMDHEASFFGAFLVG
ZBP1-dependent cell death in ADAR1-deficient MEFs: not

Reference: patent US20260000643A1, “Combination Of Curaxins And Immune Checkpoint Inhibitors For Treating Cancer” (Institute For Cancer Research d/b/a The Research Institute …, priority 2022, published 2026)
